US20260234255A1 (Genmab, published 2026)

T1: human CD30 (human, UniProt P28908 19-595)
T1 construct: also called huCD30; TNFRSF8
T1 sequence: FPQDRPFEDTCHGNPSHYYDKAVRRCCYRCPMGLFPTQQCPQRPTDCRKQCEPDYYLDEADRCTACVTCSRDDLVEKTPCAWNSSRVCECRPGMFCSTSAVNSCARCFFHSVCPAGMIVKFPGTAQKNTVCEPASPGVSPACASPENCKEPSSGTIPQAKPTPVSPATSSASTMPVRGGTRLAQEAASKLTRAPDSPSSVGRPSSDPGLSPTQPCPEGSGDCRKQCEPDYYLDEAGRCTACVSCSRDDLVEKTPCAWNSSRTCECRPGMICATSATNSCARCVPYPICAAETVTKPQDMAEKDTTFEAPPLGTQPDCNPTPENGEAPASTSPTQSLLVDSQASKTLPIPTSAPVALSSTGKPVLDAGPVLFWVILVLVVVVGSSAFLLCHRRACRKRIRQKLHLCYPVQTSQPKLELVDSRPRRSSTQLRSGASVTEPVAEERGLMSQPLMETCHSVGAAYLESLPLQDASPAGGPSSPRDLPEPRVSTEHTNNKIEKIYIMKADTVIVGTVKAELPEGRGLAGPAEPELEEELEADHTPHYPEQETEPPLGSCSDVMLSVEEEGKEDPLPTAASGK


What was measured:
human CD30 [1] = biological target: T1, human CD30; assay: flow cytometry, SU-DHL-1 cells
Procedure, shortened: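 CD3×CD30 bispecific antibodies, 3-fold serial dilutions from 0.0046 to 10 μg/mL, incubated with 3×10⁴ SU-DHL-1 (ALCL) or HDLM-2 (HL) cells for 30 min at 4 °C, then secondary antibody 30 min at 4 °C. Live cells gated by FSC/SSC and TO-PRO-3 exclusion; binding curves fitted by four-parameter sigmoidal regression.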

human CD30 [2] = biological target: T1, human CD30; assay: flow cytometry, JVM-2 cells (MCL), range of 3 tests
Method: (§1) Cells (3×10⁴ cells/well) were incubated in polystyrene 96-well round-bottom plates (Greiner bio-one, cat. no. 650180) with serial dilutions of antibodies (range 0.0046 to 10 μg/mL in 3-fold dilution steps) in 50 μL staining buffer at 4° C. for 30 min. After washing twice in staining buffer, cells were incubated with 50 μL secondary antibody at 4° C. for 30 min. […] Next, cells were washed twice in staining buffer, resuspended in 100 μL staining buffer supplemented with TO-PRO-3 iodide (Thermo Fisher Scientific; cat. no. T3605; 1:8000 dilution) and analyzed on a FACSCelesta flow cytometer (BD Biosciences, USA). Live cells were gated based on FSC/SSC and absence of TOPRO-3 staining. Binding curves were analyzed by non-linear regression of log-transformed data (sigmoidal dose-response with variable slope, four parameters) using GraphPad Prism V7.02 software (GraphPad Software, San Diego, CA, USA).

human CD30 [3] = biological target: T1, human CD30; assay: flow cytometry, L-428 cells (HL), average of 2 tests
Method: as §1

human CD30 [4] = biological target: T1, human CD30; assay: flow cytometry, JVM-2 cells (MCL), average of 3 tests
Method: as §1

human CD30 [5] = biological target: T1, human CD30; assay: flow cytometry, KARPAS-299 cells (ALCL), average of 2 tests
Method: as §1

human CD30 [6] = biological target: T1, human CD30; assay: flow cytometry, HH cells (CTCL), average of 3 tests
Method: as §1

human CD30 [7] = biological target: T1, human CD30; assay: flow cytometry, SUP-M2 cells (ALCL), average of 3 tests
Method: as §1

Row | Binder | EC50 (read off the curve) (human CD30 [1]) [µg/mL] | EC50 (human CD30 [2]) [µg/mL] | EC50 (human CD30 [3]) [µg/mL] | EC50 (human CD30 [4]) [µg/mL] | EC50 (human CD30 [5]) [µg/mL] | EC50 (human CD30 [6]) [µg/mL] | EC50 (human CD30 [7]) [µg/mL]
1 | bsG1-huCD3-FEALxCD30-MDX060-FEAR (bispecific antibody, human IgG1, kappa, lambda, also called bsG1-huCD3xCD30-MDX060) heavy 1: not shown light 1: not shown heavy 2: QVQLQQWGAGLLKPSETLSLTCAVYGGSFSAYYWSWIRQPPGKGLEWIGDINHGGGTNYNPSLKSRVTISVDTSKNQFSLKLNSVTAADTAVYYCASLTAYWGQGSLVTVSSASTKGPSVFPLAPSSKSTSGGTAALGCLVKDYFPEPVTVSWNSGALTSGVHTFPAVLQSSGLYSLSSVVTVPSSSLGTQTYICNVNHKPSNTKVDKRVEPKSCDKTHTCPPCPAPEFEGGPSVFLFPPKPKDTLMISRTPEVTCVVVAVSHEDPEVKFNWYVDGVEVHNAKTKPREEQYNSTYRVVSVLTVLHQDWLNGKEYKCKVSNKALPAPIEKTISKAKGQPREPQVYTLPPSREEMTKNQVSLTCLVKGFYPSDIAVEWESNGQPENNYKTTPPVLDSDGSFFLYSRLTVDKSRWQQGNVFSCSVMHEALHNHYTQKSLSLSPG light 2: DIQMTQSPTSLSASVGDRVTITCRASQGISSWLTWYQQKPEKAPKSLIYAASSLQSGVPSRFSGSGSGTDFTLTISSLQPEDFATYYCQQYDSYPITFGQGTRLEIKRTVAAPSVFIFPPSDEQLKSGTASVVCLLNNFYPREAKVQWKVDNALQSGNSQESVTEQDSKDSTYSLSSTLTLSKADYEKHKVYACEVTHQGLSSPVTKSFNRGEC | ~0.4 |  |  |  |  |  | 
2 | bsG1-huCD3-FEALxCD30-MDX060-FERR (bispecific antibody, human IgG1, kappa, lambda, Bispecific IgG1 made by controlled Fab-arm exchange; also called bsIgG1-huCD3-FEALxCD30-MDX060-FERR; bsG1-huCD3×CD30-MDX060) heavy 1: not shown light 1: not shown heavy 2: QVQLQQWGAGLLKPSETLSLTCAVYGGSFSAYYWSWIRQPPGKGLEWIGDINHGGGTNYNPSLKSRVTISVDTSKNQFSLKLNSVTAADTAVYYCASLTAYWGQGSLVTVSSASTKGPSVFPLAPSSKSTSGGTAALGCLVKDYFPEPVTVSWNSGALTSGVHTFPAVLQSSGLYSLSSVVTVPSSSLGTQTYICNVNHKPSNTKVDKRVEPKSCDKTHTCPPCPAPEFERGPSVFLFPPKPKDTLMISRTPEVTCVVVDVSHEDPEVKFNWYVDGVEVHNAKTKPREEQYNSTYRVVSVLTVLHQDWLNGKEYKCKVSNKALPAPIEKTISKAKGQPREPQVYTLPPSREEMTKNQVSLTCLVKGFYPSDIAVEWESNGQPENNYKTTPPVLDSDGSFFLYSRLTVDKSRWQQGNVFSCSVMHEALHNHYTQKSLSLSPG light 2: DIQMTQSPTSLSASVGDRVTITCRASQGISSWLTWYQQKPEKAPKSLIYAASSLQSGVPSRFSGSGSGTDFTLTISSLQPEDFATYYCQQYDSYPITFGQGTRLEIKRTVAAPSVFIFPPSDEQLKSGTASVVCLLNNFYPREAKVQWKVDNALQSGNSQESVTEQDSKDSTYSLSSTLTLSKADYEKHKVYACEVTHQGLSSPVTKSFNRGEC |  | 0.107 to 0.141 | 0.174 | 0.126 | 0.202 | 0.195 | 0.167
